Starred links: 1 amine or outer side, 2 acyl side, 3 side chain; linkers in the order of their positions; H or OH if unused. Positions of bridges follow the written chain, without caps; N, C: chain ends. Non-standard residues stand in square brackets, D forms with d. Primed or numbered codes have the meaning given here. *: point of attachment. PyrS2″ = (S)-3-amino-1-((pent-4-en-1-yloxy)carbonyl)pyrrolidine-3-carboxylic acid (stapling residue), C=CCCCOC(=O)N1CC[C@@](N[*:1])(C(=O)[*:2])C1; B5(5) = 2,2-bis(4-pentenyl)glycine, 2-amino-2-(pent-4-en-1-yl)hept-6-enoic acid (stitching residue), C=CCCCC(CCCC=C)(N[*:1])C(=O)[*:2]; B5(3) = 2,2-bis(4-pentenyl)glycine (stitching residue), C=CCCCC(CCCC=C)(N[*:1])C(=O)[*:2]; Phe(3-COOH) = N[C@@H](Cc1cccc(C(=O)O)c1)C(=O)O; 2F3MeF = Cc1cccc(C[C@H](N[*:1])C(=O)[*:2])c1F; Bta = N[C@@H](Cc1csc2ccccc12)C(=O)O; Lys(iPr) = CC(C)NCCCC[C@H](N)C(=O)O; αAllylPro = C=CC[C@@]1(C(=O)O)CCCN1; tBuAla = CC(C)(C)C[C@H](N)C(=O)O; 3Thi = N[C@@H](Cc1ccsc1)C(=O)O; S8 = C=CCCCCCC[C@](C)(N)C(=O)O; PyrS2(4) = not defined here; Ms = CS(=O)(=O)*
Experiments:
B-cat-Halo [1] = molecular target: T1, B-cat-Halo (UniProt P35222 1-781); assay: cell-based or functional assay
T1 sequence (looked up): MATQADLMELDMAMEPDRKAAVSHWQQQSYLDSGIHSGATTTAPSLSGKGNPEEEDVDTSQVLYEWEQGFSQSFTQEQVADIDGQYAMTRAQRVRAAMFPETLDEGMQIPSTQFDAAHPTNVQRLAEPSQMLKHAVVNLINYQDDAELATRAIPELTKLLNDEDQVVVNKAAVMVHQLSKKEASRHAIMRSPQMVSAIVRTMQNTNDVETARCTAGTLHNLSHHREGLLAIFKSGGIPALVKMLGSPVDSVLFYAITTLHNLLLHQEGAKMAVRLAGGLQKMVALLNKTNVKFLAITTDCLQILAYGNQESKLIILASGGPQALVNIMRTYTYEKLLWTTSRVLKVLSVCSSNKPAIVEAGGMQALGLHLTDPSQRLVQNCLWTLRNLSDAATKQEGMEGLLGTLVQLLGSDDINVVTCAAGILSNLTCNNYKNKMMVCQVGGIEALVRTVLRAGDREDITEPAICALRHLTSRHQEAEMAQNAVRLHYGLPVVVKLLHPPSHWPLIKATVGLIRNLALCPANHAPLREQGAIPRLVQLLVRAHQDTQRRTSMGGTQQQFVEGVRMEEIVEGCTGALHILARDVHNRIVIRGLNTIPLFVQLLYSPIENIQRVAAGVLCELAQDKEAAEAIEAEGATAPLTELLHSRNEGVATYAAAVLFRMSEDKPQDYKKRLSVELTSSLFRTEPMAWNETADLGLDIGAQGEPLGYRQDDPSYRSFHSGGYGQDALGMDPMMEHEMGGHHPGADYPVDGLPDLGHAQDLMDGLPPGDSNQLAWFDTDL

[2] = molecular target: T2, beta-catenin in DLD1 TCF/LEF luciferase reporter cells (UniProt P35222 2-781); assay: cell-based or functional assay
T2 sequence (looked up): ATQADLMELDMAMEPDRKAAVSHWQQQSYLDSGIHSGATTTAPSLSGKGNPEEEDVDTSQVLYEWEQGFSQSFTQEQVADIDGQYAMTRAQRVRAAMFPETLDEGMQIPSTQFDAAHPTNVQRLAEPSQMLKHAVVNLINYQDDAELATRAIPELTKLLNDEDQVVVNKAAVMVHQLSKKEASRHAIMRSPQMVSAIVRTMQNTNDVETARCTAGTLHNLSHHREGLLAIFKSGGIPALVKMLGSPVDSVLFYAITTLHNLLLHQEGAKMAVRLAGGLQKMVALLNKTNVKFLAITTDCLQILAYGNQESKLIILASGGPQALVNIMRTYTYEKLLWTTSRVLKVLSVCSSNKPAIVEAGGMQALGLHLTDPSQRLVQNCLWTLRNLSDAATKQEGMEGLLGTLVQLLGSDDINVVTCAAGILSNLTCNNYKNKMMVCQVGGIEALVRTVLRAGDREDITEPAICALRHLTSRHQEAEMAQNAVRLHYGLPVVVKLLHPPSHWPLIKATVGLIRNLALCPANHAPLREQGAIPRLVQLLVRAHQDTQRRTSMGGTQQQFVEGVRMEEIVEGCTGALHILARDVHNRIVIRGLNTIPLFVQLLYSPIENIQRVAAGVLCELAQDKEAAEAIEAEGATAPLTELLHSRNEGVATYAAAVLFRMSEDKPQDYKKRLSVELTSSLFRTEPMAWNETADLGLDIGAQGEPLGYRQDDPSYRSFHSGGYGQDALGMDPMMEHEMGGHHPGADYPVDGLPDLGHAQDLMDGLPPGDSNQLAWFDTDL

[3] = molecular target: T3, full-length beta-Catenin (Uniprot ID P35222) (Homo sapiens (Human), UniProt P35222 1-781); assay: fluorescence polarization competition; peptide titrated against full-length beta-catenin + 5FAM-TCF4(10-53)
T3 construct: also called bCat; B-Catenin
T3 sequence: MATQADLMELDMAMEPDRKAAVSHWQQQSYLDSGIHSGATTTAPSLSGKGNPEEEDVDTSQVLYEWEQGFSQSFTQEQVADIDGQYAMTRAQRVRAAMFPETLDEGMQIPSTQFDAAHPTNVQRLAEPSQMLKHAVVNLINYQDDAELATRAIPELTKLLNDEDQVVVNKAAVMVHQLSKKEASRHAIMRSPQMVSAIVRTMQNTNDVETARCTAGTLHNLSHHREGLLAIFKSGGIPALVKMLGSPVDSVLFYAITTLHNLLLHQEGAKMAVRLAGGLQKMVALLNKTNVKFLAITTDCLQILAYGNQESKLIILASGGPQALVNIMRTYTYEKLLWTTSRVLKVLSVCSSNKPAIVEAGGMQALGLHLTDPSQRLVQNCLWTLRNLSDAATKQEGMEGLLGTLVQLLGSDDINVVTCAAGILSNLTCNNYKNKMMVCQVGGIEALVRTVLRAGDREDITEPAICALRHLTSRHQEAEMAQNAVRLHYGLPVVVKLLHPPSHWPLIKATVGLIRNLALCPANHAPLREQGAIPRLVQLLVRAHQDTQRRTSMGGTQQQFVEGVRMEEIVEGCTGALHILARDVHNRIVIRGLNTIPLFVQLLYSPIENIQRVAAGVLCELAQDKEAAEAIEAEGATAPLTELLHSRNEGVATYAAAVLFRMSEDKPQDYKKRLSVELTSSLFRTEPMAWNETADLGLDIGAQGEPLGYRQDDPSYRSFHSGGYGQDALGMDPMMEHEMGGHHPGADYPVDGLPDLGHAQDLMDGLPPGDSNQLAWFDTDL
Procedure: The plate was incubated protected from light for 60 minutes at 20° C. prior to read. Reads were performed on a CLARIOstar plate reader (BMG Labtech) in duplicate, and data were fitted to a 1:1 binding model with hill slope using an in-house script. All provided concentrations are final concentrations.

B-cat-Halo [4] = molecular target: T4, B-cat-Halo (Homo sapiens (Human), UniProt P35222 1-781); assay: cell-based or functional assay
T4 sequence: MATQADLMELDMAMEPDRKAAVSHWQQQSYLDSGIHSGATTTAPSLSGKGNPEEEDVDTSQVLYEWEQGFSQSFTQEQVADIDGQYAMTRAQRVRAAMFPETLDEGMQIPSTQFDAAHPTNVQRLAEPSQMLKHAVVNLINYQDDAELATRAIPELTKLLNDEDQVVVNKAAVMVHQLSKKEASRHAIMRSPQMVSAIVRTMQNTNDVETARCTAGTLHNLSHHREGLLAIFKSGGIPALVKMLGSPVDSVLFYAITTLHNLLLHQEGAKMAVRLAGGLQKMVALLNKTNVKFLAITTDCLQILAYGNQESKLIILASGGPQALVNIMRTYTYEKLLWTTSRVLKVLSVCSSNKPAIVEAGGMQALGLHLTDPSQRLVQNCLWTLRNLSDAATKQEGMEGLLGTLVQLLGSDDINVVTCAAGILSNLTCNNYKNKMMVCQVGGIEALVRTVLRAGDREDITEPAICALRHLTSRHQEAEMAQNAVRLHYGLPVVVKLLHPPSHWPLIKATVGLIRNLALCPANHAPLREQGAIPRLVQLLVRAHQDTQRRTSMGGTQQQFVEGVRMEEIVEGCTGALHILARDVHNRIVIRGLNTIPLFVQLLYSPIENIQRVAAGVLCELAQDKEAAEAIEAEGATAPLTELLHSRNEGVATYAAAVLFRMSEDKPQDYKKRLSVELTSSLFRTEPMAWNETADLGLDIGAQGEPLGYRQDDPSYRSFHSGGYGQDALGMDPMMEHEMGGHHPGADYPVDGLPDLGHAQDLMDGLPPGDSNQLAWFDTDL

[5] = molecular target: T5, beta-catenin in DLD1 TCF/LEF luciferase reporter cells (Homo sapiens (Human), UniProt P35222 1-781); assay: cell-based or functional assay
T5 sequence: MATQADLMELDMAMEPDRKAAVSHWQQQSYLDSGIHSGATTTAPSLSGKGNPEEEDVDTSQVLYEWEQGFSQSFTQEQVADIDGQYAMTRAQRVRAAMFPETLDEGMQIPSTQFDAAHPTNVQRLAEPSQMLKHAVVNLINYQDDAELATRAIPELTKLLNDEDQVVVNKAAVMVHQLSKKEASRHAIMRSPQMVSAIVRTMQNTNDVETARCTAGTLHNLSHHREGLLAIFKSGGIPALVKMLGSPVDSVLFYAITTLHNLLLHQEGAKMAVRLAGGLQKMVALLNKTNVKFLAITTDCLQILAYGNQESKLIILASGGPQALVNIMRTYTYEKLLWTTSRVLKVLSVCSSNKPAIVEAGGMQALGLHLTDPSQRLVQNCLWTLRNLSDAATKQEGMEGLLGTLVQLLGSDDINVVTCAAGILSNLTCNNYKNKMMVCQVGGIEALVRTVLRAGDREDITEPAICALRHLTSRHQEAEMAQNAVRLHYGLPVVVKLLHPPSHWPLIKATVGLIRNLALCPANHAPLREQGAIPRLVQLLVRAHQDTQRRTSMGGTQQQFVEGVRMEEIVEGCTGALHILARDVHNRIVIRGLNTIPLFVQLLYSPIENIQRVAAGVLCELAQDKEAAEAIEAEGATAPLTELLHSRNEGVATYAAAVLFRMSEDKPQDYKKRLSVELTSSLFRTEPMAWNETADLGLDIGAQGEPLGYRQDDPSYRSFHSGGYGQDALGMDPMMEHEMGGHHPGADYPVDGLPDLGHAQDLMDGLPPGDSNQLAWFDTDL

B1: I-1616 (peptide)
peptide: Ac-[αAllylPro]D[tBuAla][B5(3)]D[Phe(3-COOH)]AAFL[PyrS2(4)][2F3MeF][Bta][Lys(iPr)]-NH2
modifications: staple 1-4, 4-11; not fully specified; printed as Ac-PL3-Asp-Npg-B5-Asp-3COOHF-Ala-Ala-Phe-Leu-PyrS2-2F3MeF-BztA-iPrLys-NH2; reading uncertain
B-cat-Halo [1]
  NanoBRET Abs IC50: 4500 nM
[2]
  DLD1 4% Abs IC50: 2800 nM

B2: I-710 (peptide)
peptide: Ms-[αAllylPro]DI[B5(5)]DEAAFQ[S8]F[Bta]Q-NH2
modifications: staple 1-4, 4-11
notes: separate staple-isomer composition (earlier eluting HPLC peak); also called MeSO2-PL3-Asp-Ile-B5-Asp-Glu-Ala-Ala-Phe-Gln-S8-Phe-BztA-Gln-NH2
[3]
  IC50: 73 nM

## Ac-[αAllylPro]D[tBuAla][B5(3)]D[Phe(3-COOH)]AAFL[PyrS2″][3Thi][Bta]N-NH2 (staple 1-4, 4-11) [I-2043]
B-cat-Halo [4]
  NanoBRET Abs IC50: 2800 nM
[5]
  DLD1 4% Abs IC50: 1000 nM
